Assay in all cases: fluorescence anisotropy; FA: 20 mM HEPES-NaOH pH 7.5, 100 mM NaCl, 10% glycerol, 20 C, 10 nM FAM-RNA; competition: 150 nM Egl512-819 + 10 nM FAM-K10 TLS, same buffer
What all share (details): protein: recombinant; tags: N-terminal GST; label: 5'-6-FAM; hairpin with two bulges
A general note: Polarisation of emitted light reports the rotation of a fluorescent probe.

For data set [1], the target named is T1, Egl1-819 (Drosophila melanogaster, UniProt Q9W1K4 1-819).
T1 sequence: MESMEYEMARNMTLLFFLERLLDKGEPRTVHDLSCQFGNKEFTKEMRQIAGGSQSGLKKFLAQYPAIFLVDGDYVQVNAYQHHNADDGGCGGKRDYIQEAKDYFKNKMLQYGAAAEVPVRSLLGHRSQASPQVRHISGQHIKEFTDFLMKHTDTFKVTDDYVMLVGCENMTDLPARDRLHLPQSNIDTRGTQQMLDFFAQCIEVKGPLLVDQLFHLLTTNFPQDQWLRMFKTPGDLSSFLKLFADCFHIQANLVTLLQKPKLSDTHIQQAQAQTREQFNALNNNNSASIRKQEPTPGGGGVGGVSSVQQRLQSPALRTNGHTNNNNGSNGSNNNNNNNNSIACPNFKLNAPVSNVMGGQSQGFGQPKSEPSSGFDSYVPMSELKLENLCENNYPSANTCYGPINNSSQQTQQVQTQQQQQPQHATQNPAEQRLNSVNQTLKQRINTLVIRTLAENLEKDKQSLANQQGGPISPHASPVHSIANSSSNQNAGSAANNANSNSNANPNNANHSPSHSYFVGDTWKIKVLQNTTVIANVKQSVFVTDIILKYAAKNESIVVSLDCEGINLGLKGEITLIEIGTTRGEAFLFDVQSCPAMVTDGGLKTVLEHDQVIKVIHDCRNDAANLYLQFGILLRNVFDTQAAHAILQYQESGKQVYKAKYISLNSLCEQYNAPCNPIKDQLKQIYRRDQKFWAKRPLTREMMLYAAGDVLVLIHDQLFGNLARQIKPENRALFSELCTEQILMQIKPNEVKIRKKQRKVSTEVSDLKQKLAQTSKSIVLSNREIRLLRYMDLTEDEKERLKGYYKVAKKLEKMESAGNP

Data set [2] concerns the target T2, K754E (Drosophila melanogaster, UniProt Q9W1K4 512-819, K754E).
T2 sequence: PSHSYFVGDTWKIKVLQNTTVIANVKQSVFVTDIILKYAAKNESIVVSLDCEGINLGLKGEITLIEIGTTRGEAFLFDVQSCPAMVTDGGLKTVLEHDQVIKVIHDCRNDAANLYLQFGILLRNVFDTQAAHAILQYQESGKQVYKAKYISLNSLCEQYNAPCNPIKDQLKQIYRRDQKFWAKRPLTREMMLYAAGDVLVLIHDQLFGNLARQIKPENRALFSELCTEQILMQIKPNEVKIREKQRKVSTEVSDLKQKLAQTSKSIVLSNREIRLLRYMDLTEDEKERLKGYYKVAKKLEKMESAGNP

Data set [3] deals with T3, L-EHD (Egl743-819) (Drosophila melanogaster, UniProt Q9W1K4 743-819).
T3 sequence: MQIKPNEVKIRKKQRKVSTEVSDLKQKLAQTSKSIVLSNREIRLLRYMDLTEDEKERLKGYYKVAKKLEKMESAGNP

One may read the Kd as the constant that tells how readily two partners part at equilibrium. For CUUGAUUGUAUUUUUAAAUUAAUUCUUAAAAACUACAAAUUAAG (structured_RNA) [K10 TLS (FAM)], the Kd in data set [1] is 127 ± 7 nM; in data set [2] it was 263 ± 16 nM; in data set [3] it was 262 ± 9 nM.

These data come from paper doi:10.1101/2025.08.03.668247, “The structure of Egalitarian in complex with the K10 mRNA localization signal reveals a modular binding surface required for function”.
